Here are results for seven molecules from US11994512B2, “Single-cell genomic methods to generate ex vivo cell systems that recapitulate in vivo biology with improved fidelity” (Massachusetts Institute of Technology, priority 2018, dated 2024).

This assay concerns intracellular proteome of ENR+CD and ENR organoids. Description: LC-MS/MS TMT proteomics of ENR+CD versus ENR organoids. It counts as cell-based, C57BL/6 mice. To be noted: for Average logFC / M1-1 Log2 Median Normalized / M1-2 Log2 Median Normalized / M2-1 Log2 Median Normalized / M2-2 Log2 Median Normalized: protein abundance, ENR+CD versus ENR organoids; for Average logFC: aggregate of the four sample pairs; for M1-1 Log2 Median Normalized: replicate M1-1; for M1-1 Log2 Median Normalized / M1-2 Log2 Median Normalized / M2-1 Log2 Median Normalized / M2-2 Log2 Median Normalized: log2 ratio; for M1-2 Log2 Median Normalized: replicate M1-2; for M2-1 Log2 Median Normalized: replicate M2-1; for M2-2 Log2 Median Normalized: replicate M2-2; for change: up = enriched in ENR+CD, down = enriched in ENR, FDR<0.05 and log fold change cut-off.

B1: Q3UGF1 (protein, UniProt Q3UGF1 1-1341, looked up)
chain: MKRVFSLLEKSWLGAPIQFAWQKSSGNYLAVTGADYIVKIFDRHGQKRSEISLPGNCVTMDWDKDGDILAVIAEKSSCIYLWDANTNKTSQLDNGMRDQMSFLLWSKIGSFLAVGTIKGNLLIYNHQTSRKIPVLGKHTKKITCGCWNSENLLALGGEDKMITVSNQEGDTIRQTPVKSEPSDIKFSMSKTDERISSAENTISAVVGKKMLFLFHLNEPDNPVDLEFQQAYGNIVCYSWYGDGYIMIGFSRGTFLAISTHFPEVGQEIFKARDHKDNLTSVALSQTLNKAATCGDNCIKIHDLTELRDMYAIINLDDENKGLGTLSWTDDGQLLALSTQRGSLHVFLTKLPILGDACHTRIAYLTSLLEVTVANLIEGEPPITVSVDVEPTFVAVGLYHLAVGMNNRAWFYVLGENVVKKLKDVEYLGTVASICLHSDYAAALFEGKIQLHLIENEMLDAQEERETRLFPAVDDKCRILCHALTSDFLIYGTDTGIIHYFFIEDWQFVNDYRHPVGVKKLFPDPNGTRLVFIDEKSDGFVYCPVNDATYEIPDFSPTIKGVLWENWPMDKGVFIAYDDDKVYTYAFHKDTIQGSKVILAGSTKLPFSHKPLLLYNGELTCQTQSGKINSIYLSTHSFLGSMKDTEPTDLRQMLTQTLLLKRFSDAWDICKMLNDRTSWSELAKACLHHMEVEFAIRVSRTMGDVGTVMSLEQIKGIEDYNLLAGHLAMFTNDFNLAQDLYLASNCPVAALEMRRDLQHWDSALQLAKRLAPDQIPFISKEYAIQLEFTGDYVNALAHYEKGITGDNKEHDEVCLAGVAQMSIRMGDIRRGANQALKHPSRVLKRDCGAILENMKQFSEAAQLYEKGQYYDRAASVYIRCKNWAKVGELLPHVSSPKIHLQYAKAKEADGRYKEAVVAYENAKQWNSVIRIYLDHLNNPEKAVSIVRETQSLDGAKMVARFFLQLGDYGSAIQFLVLSKCNNEAFTLAQQHNKMEIYADIIGAEDTTNEDYQSIALYFEGEKRHFQAGKFFLLCGQYSRALKHFLKCPSSEDNVAIEMAIETVGQAKDELLTNQLIDHLMGESDGMPKDAKYLFRLYMALKQYREAARTAIIIAREEQSAGNYRNAHDVLFSMYAELKAQKIKIPSEMATNLMILHSYILVKIHVKSGDHMKGARMLIRVANNISKFPSHIVPILTSTVIECHRAGLKNSAFSFAAMLMRPEYRNKIDAKYKKKIEAMVRRPDTSETEEATTPCPFCQFLLPECELLCPGCKNNIPYCIATGRHMLKDDWTMCPHCGFPALYSEFKILLNSESTCPMCSERLNSSQLKKITDCSQYLRTEME
modifications: full-length
B1: the “Average logFC” value is on record as −1.153, the “M1-1 Log2 Median Normalized” value is on record as −0.199, the “M1-2 Log2 Median Normalized” value is listed as −0.895 and the “M2-1 Log2 Median Normalized” value is on record as −1.3115. Besides, the “M2-2 Log2 Median Normalized” value is listed as −2.206 and the change entry is “down”.

B2: Q08652 (protein, UniProt Q08652 1-134, looked up)
chain: MTKDQNGTWEMESNENFEGYMKALDIDFATRKIAVRLTQTKIITQDGDNFKTKTNSTFRNYDLDFTVGVEFDEHTKGLDGRHVKTLVTWEGNTLVCVQKGEKENRGWKQWVEGDKLYLELTCGDQVCRQVFKKK
modifications: full-length
On to B2, for which the “Average logFC” value is on record as −1.48, the “M1-1 Log2 Median Normalized” value was −1.364, the “M1-2 Log2 Median Normalized” value was −2.41 and the “M2-1 Log2 Median Normalized” value is −1.7785. Also, the “M2-2 Log2 Median Normalized” value is −0.366 and the change entry is recorded as “down”.

B3: Q07797 (protein, UniProt Q07797 1-577, looked up)
chain: MALLWLLSVFLLVPGTQGTEDGDMRLVNGASANEGRVEIFYRGRWGTVCDNLWNLLDAHVVCRALGYENATQALGRAAFGPGKGPIMLDEVECTGTESSLASCRSLGWMVSRCGHEKDAGVVCSNDTTGLHILDLSGELSDALGQIFDSQQGCDLFIQVTGQGYEDLSLCAHTLILRTNPEAQALWQVVGSSVIMRVDAECMPVVRDFLRYFYSRRIEVSMSSVKCLHKLASAYGATELQDYCGRLFATLLPQDPTFHTPLDLYAYARATGDSMLEDLCVQFLAWNFEPLTQSESWSAVPTTLIQALLPKSELAVSSELDLLKAVDQWSTETIASHEDIERLVEQVRFPMMLPQELFELQFNLSLYQDHQALFQRKTMQALEFHTVPVEVLAKYKGLNLTEDTYKPRLYTSSTWSSLVMASTWRAQRYEYNRYNQLYTYGYGSVARYNSYQSFQTPQHPSFLFKDKQISWSATYLPTMQSCWNYGFSCTSNELPVLGLTTSSYSNPTIGYENRVLILCGGYSVVDVTSFEGSKAPIPTALDTNSSKTPSLFPCASGAFSSFRVVIRPFYLTNSTDMV
modifications: full-length
Regarding B3, the “Average logFC” value is given as 1.146, the “M1-1 Log2 Median Normalized” value came to 1.212, the “M1-2 Log2 Median Normalized” value is 1.255 and the “M2-1 Log2 Median Normalized” value is listed as 1.1065. In addition, the “M2-2 Log2 Median Normalized” value worked out at 1.011 and the change entry was “up”.

B4: Q3U9N9 (protein, UniProt Q3U9N9 1-512, looked up)
chain: MVPSQEEPAAERETNEAQPPGPAPSDDAPLPGPGPSDVSDVAAEKVEVELTRSAGSEPPVPPEGGWGWLVMLAAMWCNGSVFGIQNAYGVLFVSMLDTFKAKDDDNMAFKTAWVGSLSMGMIFFCCPIVSVFTDMFGCRRTAVVGAAVGFIGLMSSSFVSSIEPLYLTYGIIFACGCSFAYQPSLVILGHYFKKRLGLVNGIVTAGSSVFTILLPLLLGNLISSVKLFNTLRILCIFMFVLFLAGFTYRPLVPSTKEKESGGSRSSFFSRRKLSPPKKVFNFALFKETTYAVWAAGIPLALFGYFVPYVHLMNHVKERFQDVNNKEVLFMCIGITSGVGRLLFGRIADYLPGVKKVYLQVLSFFFIGLMSMMIPLCSAFGALIAVCLAMGLFDGCFISIMAPIAFELVGPQDASQAIGFLLGFMSIPMTVGPPIAGLLHDKLGTYDVAFYLAGIPPFVGGVVLCLIPWIHSKKQRKISKNAGGEKMEKMLENQSSLLSGSSGIFKKDSASII
modifications: full-length
Turning to B4, the “Average logFC” value is −1.314, the “M1-1 Log2 Median Normalized” value was −1.309, the “M1-2 Log2 Median Normalized” value was −0.055 and the “M2-1 Log2 Median Normalized” value is on record as −1.4695. The “M2-2 Log2 Median Normalized” value is given as −2.424 and the change result is on record as “down”.

B5: Q3U0B3 (protein, UniProt Q3U0B3 1-260, looked up)
chain: MTRAGMERWRDRLALVTGASGGIGAAVARALVQQGLKVVGCARTVGNIEELAAECKSAGYPGTLIPYRCDLSNEEDILSMFSAVRSQHSGVDICINNAGMARPDTLLSGSTSGWKDMFNVNVLALSICTREAYQSMKERNIDDGHIININSMCGHRVPPQSVIHFYSATKYAVTALTEGLRQELLEAQTHIRATCISPGLVETQFAFKLHDKDPGEAAATYEHIKCLRPEDVAEAVIYVLSTPPHVQVGDIQMRPTEQVT
modifications: full-length
In the case of B5, the “Average logFC” value is listed as −1.3, the “M1-1 Log2 Median Normalized” value was −1.054, the “M1-2 Log2 Median Normalized” value is reported as −1.691 and the “M2-1 Log2 Median Normalized” value is reported as −1.5305. Further, the “M2-2 Log2 Median Normalized” value is −0.923 and the change entry is recorded as “down”.

B6: Q3UA16 (protein, UniProt Q3UA16 1-226, looked up)
chain: MGEDELALLNQSINEFGDKFRNRLDDNHSQVLGLRDAFKDSMKAFSEKMSLKLKEEERMTEMILEYKNQLCKQNKLIQEKKENVLKMIAEVKGKEQESEELTAKIQELKEEYARKRETISTANKANEERLKGLQKSADLYRDYLGLEIRKIHGNKLQFIFTSIDPKNPESPYMFSMSINEAKEYEVYDSSPHLECLAEFQEKVRKTNNFSAFLANIRKAFIAKVHN
modifications: full-length
B6: the “Average logFC” value is on record as −1.826, the “M1-1 Log2 Median Normalized” value was −1.924, the “M1-2 Log2 Median Normalized” value is recorded as −0.747 and the “M2-1 Log2 Median Normalized” value is given as −1.8235. Besides, the “M2-2 Log2 Median Normalized” value was −2.598 and the change entry is listed as “down”.

B7: Q33DR2 (protein, UniProt Q33DR2 1-409, looked up)
chain: MAMRWSCWRRGCSWRPTAVGSPRRERPGCVEPLGTRAASDTRAQIPYFSLMKILMSASPTMHSISQFHQRTPAMCSCRQTQSGEKYSDPFKLGWRDLKGLYEDIRKELHISTRELKDMSEYYFDGKGKAFRPIIVVLMARACNIHHNNAREMQASQRSIALVAEMIHTATLVHDDVIDDASSRRGKHTVNKIWGEKKAVLAGDLILSAASVALARIGNTAVVSMLAQVIEDLVRGEFLQLGSKENENERFAHYLEKTFKKTASLIANSCKAVSVLGCPDPVVHEIAYQYGKNVGIAFQLIDDVLDFTSCSDQMGKPTSADLKLGIATGPVLFACQQFPEMNAMIMRRFSLPGDVDRARQYVLQSDGVQQTTYLAQQYCHKAVREIRKLRPSTERDALIQLSESVLTRDK
modifications: full-length
Take B7: the “Average logFC” value is recorded as −1.389, the “M1-1 Log2 Median Normalized” value is on record as −1.379, the “M1-2 Log2 Median Normalized” value is listed as −1.779 and the “M2-1 Log2 Median Normalized” value was −1.2185. Also, the “M2-2 Log2 Median Normalized” value is given as −1.389 and the change entry is “down”.
